The record followed here is publication PMC8215385, “Design of a Proteolytically Stable Sodium-Calcium Exchanger 1 Activator Peptide for In Vivo Studies” (Frontiers in Pharmacology, 2021).

B1: biotin-ahx-pSer68-PLMcyt (peptide)
peptide: {Biotin-Ahx}-KRCRCKFNQQQRTGEPDEEEGTFRSSIRRLSSRRR
modifications: also: phosphoserine at Ser68 (numbering not mappable from notes)
notes: cytoplasmic part of phospholemman (PLM, FXYD1), printed as [residues removed]; Immobilised on SA chips (SPR) and used as overlay probe on the peptide arrays; also called biotin-pSer68-PLM; biotin-pSer68-PLMcyt; source: synthetic peptide (Genscript, >80% purity)

Non-standard residues stand in square brackets, D forms with d. No end group written: not given here. *: point of attachment. Biotin = O=C1N[C@H]2[C@H](CS[C@H]2CCCCC(=O)*)N1; NMePro = CN1CCC[C@H]1C(=O)*; Ahx = NCCCCCC(=O)O

One experiment deals with T1, pSer68-PLMcyt (Mus musculus, UniProt Q9Z239).
T1 construct: purchased Genscript; host or cells: synthetic peptide
T1 sequence (Q9Z239 58-92 limits assumed): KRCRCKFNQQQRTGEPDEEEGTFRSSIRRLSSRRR
Description: Peptide array overlay with biotin-pSer68-PLM. The format is binding. Particulars: membrane-synthesized peptides overlaid with 5 μM biotin-pSer68-PLM, anti-biotin-HRP. An excerpt:
Peptides on cellulose membranes were synthesized using a Multipep automated peptide synthesizer (INTAVIS Bioanalytical Instruments AG, Koeln, Germany) ([Frank, 1992], [Frank, 2002]). Peptides in solution were synthesized (listed below) at >80% purity by Genscript (Corporation, Piscataway, NJ, United States). For some of the peptides a cell-permeable TAT ([…]) or a biotin tag was included at either N- or C-terminus with or without an ahx-linker in between to avoid any potential steric hindrance.
Peptide array membranes were blocked in 1% casein for 2–4 h and overlaid with 5 μM of biotinylated pSer68-PLM peptide in 1% casein overnight at 4°C. The membranes were then washed three times for 10 min in TBS-T before incubation with anti-biotin-horseradish peroxidase (HRP) for 1 h (see Antibodies and Recombinant Protein). Peptide-bound spots were detected as described in the immunoblotting section.

Experiment [1] addresses B1. Put plainly: SPR; Biacore X100; biotinylated pSer68-PLMcyt or PLMcyt immobilised on SA chip (~50-200 RU); His-TF-NCX1cyt dialysed into running buffer injected at a range of concentrations (single cycles), 30 or 100 ul/min, 180 s, dissociation 600 s; 1:1 (Langmuir) fit.
A further experiment has as its target biotin-ahx-PLMcyt. Described as above.
Experiment [2] has as its system adult mouse cardiomyocytes. Put plainly: Ca2+ transients and SR Ca2+ load in isolated adult cardiomyocytes. Particulars: 1 μM, vs scrambled control. The format is cell-based. The protocol: (§1) 8 weeks old C57BL6/J mice were randomized to SHAM or an aortic banding (AB) operation using o-rings (ORAB) as previously described ([Melleby et al., 2018]). Mice were anesthetized in a combination of 5% isoflurane and 95% O2, before endotracheal intubation and ventilation using a MiniVent rodent ventilator (Harvard Apparatus, United States). Left sided hemothoracotomy in the third intercostal space was performed, before dissection and placement of the o-ring around the ascending aorta. Animals were allowed to recover, and post-operative analgesia was achieved by injections of buprenorphine in accordance with the institutional guidelines. Animal experiments was approved by the Norwegian National Animal Research Committee (FDU 7040).
Cardiomyocytes were isolated based on a similar protocol as recently described ([Ackers-Johnson et al., 2016]). Mice were anesthetized and mask ventilated with a combination of 3% isoflurane and 97% O2. Deep surgical anesthesia was confirmed by abolished pain reflexes. […] Then 7 ml of buffer A (in mM: HEPES 25, NaCl 130, KCl 5.4, NaH2PO4 0.4, MgCl2 0.5, D-glucose 22, pH 7.4) with 5 mM EDTA was injected into the right ventricle. Thereafter, the aorta was clamped and the heart was excised. 10 ml of the buffer solution and thereafter 3 ml of the buffer solution without EDTA were injected into the left ventricle over 2–5 min. Then preheated solution A containing 0.8 mg/ml collagenase II was injected into the left ventricle over ∼20 min. The atria and right ventricle were removed, and the cardiomyocytes were isolated according to the same procedure as described for the Langendorff-based isolation of rat cardiomyocytes (described further below).
Isolated cardiomyocytes were loaded for 10 min with 5 μM fluo-4 AM ester (Molecular Probes, Eugene, OR, United States) at RT. The superfusate contained (mM): NaCl 140, HEPES 5, KCl 5.4, CaCl2 1, MgCl2 0.5, D-glucose 5.5 and NaH2PO4 0.4. The pH was adjusted to 7.4. […] Whole-cell Ca^2+ transients were recorded in field stimulated cardiomyocytes at 0.5 Hz (2.5 ms bipolar pulses) and 37°C with Cairn Research Optoscan Monochromator (excitation 485 nm, emission 515 nm long pass) (Cairn Research Ltd., United Kingdom). Regular Ca^2+ transients were recorded for at least 3 min per cell, before the field stimulation was stopped and 10 mM caffeine was added. Background fluorescence was recorded for each cell. Ca^2+ transients amplitude and SR Ca^2+ load was calculated as maximal fluorescence (F) divided on resting fluorescence (F0) on field stimulated and caffeine evoked Ca^2+ transients, respectively (See Figure 4I for illustration of protocol details). […] The NCX rate constant was calculated as: 1/τcaff ([Díaz et al., 1997]), as the non SERCA2, non-NCX mediated Ca^2+ removal was considered negligible.

A further experiment relates to NCX1. Put plainly: NCX activity (NCX rate constant, 1/τcaff) in isolated adult cardiomyocytes. The format is cell-based, mouse. Particulars: 1 μM, vs TAT-tagged scrambled control. Here is the method:
as §1, with “Animal experiments was approved by the Norwegian National Animal Research Committee (FDU 7040).” left out
Isolated cardiomyocytes were loaded for 10 min with 5 μM fluo-4 AM ester (Molecular Probes, Eugene, OR, United States) at RT. […] Whole-cell Ca^2+ transients were recorded in field stimulated cardiomyocytes at 0.5 Hz (2.5 ms bipolar pulses) and 37°C with Cairn Research Optoscan Monochromator (excitation 485 nm, emission 515 nm long pass) (Cairn Research Ltd., United Kingdom). Regular Ca^2+ transients were recorded for at least 3 min per cell, before the field stimulation was stopped and 10 mM caffeine was added. Background fluorescence was recorded for each cell. […] The NCX rate constant was calculated as: 1/τcaff ([Díaz et al., 1997]), as the non SERCA2, non-NCX mediated Ca^2+ removal was considered negligible.

Another experiment concerns the target T2, mini-OPT.
T2 construct: residues 3-18 of OPT; source: synthetic peptide, spot-synthesised on cellulose membrane
T2 peptide: PYKEIEQLIELANYQV
Put plainly: peptide or protein array; peptides spot-synthesised on cellulose membranes, blocked in 1% casein, overlaid with 5 uM biotinylated pSer68-PLM peptide in 1% casein overnight at 4°C; detected with anti-biotin-HRP. Particulars: both partners purified.

The target of experiment [3] is T3, OPT with three amino acids deleted at its N-terminus.
T3 construct: source: synthetic peptide, spot-synthesised on cellulose membrane
T3 peptide: YKEIEQLIELANYQVLS
The experiment is described as above. Particulars: both partners purified.

Experiment [4] deals with T4, OPT with two amino acids deleted at its C-terminus.
T4 construct: C-terminus'; source: synthetic peptide, spot-synthesised on cellulose membrane
T4 peptide: YHPYKEIEQLIELANYQV
The description is as above. Particulars: both partners purified.

The target in experiment [5] is B1. Put plainly: SPR. Particulars: both partners purified.

Turning to “E6G: E6G substitution of mini-OPT on the peptide array; negative control in pull down (PYKEIGQLIELANYQV)”, in the experiment with pSer68-PLMcyt, the “pSer68-PLM binding on peptide array” value is “abolished pSer68-PLM binding”.
In the case of HIS-TF-NCX1cyt (domain or fragment), in the experiment with biotin-ahx-pSer68-PLMcyt [1], the Kd – broadly, the concentration at which binding is half-saturated – was 4.3 nM; the koff (as a rule, the rate constant with which the complex falls apart) was 0.0011 s⁻¹; the kon (in general, a measure of how fast the partners come together) stood at 380000 M⁻¹ s⁻¹. In the experiment with biotin-ahx-PLMcyt, this molecule displayed a Kd of 4.1 nM, a koff of 0.004 s⁻¹ and a kon of 1.1e+06 M⁻¹ s⁻¹.
For “NOPT-TAT: NOPT made cell permeable by addition of a TAT tag to its C-terminus ([NMePro]YKEIEQLIELANYQVRKKRRQRRR)”, the “Ca2+ transient amplitude” value in experiment [2] (HF cardiomyocytes) and in [2] (SHAM cardiomyocytes) was “did not change” throughout. Further, the “sarcoplasmic reticulum (SR) Ca2+ load” value in experiment [2] (HF cardiomyocytes) and in [2] (SHAM cardiomyocytes) was “did not change” in each case. The “increase of NCX1 activity (NCX1 rate constant)” value with NCX1 (cardiomyocytes from SHAM-operated mice, 10–13 cells from three mice) is listed as “approximately 40%”; in the experiment with NCX1 (cardiomyocytes from aorta banded HF mice, 6–7 cells from three mice), “approximately 60%”.
For the molecule PYKEIEQLIELANYQV [mini-OPT], at pSer68-PLMcyt, the “pSer68-PLM binding on peptide array” value is “minimum sequence that was required to bind pSer68-PLMcyt”.
The same measure, in the same setting: for “Y14A: Y14A substitution of mini-OPT on the peptide array; negative control in pull down (PYKEIEQLIELANAQV)” the value was “abolished pSer68-PLM binding”.
For B1, the binding result (with mini-OPT; in experiment [3]; in [4]) was “binds” throughout.

B2: NOPT-TAT (peptide)
peptide: [NMePro]YKEIEQLIELANYQVRKKRRQRRR
notes: also called TAT-conjugated NOPT; cell-permeable NOPT; source: synthetic peptide (Genscript, >80% purity)
In the case of B2, the dissociation constant Kd in the experiment with biotin-ahx-pSer68-PLMcyt [5] was 129 nM.
